Target: LXRa:RXRa (Homo sapiens, UniProt Q13133;P19793 full;full)
Assay: no ligand; PBM; 270 nM : 90 nM RXRa; PBS pH 7.4, 2% milk, 0.02% Triton X-100, 1 mM DTT, BSA, 0.4 mg/ml salmon testes DNA
Details: tags: His kept;His cleaved; copies: 1;1; label: surface-attached array probe
Outline: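 Each nuclear receptor dimer, without ligand, was incubated for 1 h on custom Agilent 4×180K protein-binding microarrays. Binding was detected with antibodies against each partner (one per run), and scanned fluorescence was regression-normalized. The binding z-scores are referenced to random human genomic background probes.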

Chain of LXRa:RXRa (Q13133 whole entry, chain 1 of 2): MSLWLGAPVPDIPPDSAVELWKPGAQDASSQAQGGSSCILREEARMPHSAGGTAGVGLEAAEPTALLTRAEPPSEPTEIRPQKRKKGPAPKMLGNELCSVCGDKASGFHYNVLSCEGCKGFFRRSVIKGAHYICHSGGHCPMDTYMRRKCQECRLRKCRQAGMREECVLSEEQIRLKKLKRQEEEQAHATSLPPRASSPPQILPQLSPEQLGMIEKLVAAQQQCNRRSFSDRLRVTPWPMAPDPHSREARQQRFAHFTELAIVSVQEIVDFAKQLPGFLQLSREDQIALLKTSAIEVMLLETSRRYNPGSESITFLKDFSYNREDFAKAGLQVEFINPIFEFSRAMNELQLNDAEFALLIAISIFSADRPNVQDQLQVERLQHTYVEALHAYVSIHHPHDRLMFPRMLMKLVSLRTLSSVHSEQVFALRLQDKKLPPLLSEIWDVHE
Chain of LXRa:RXRa (P19793 whole entry, chain 2 of 2): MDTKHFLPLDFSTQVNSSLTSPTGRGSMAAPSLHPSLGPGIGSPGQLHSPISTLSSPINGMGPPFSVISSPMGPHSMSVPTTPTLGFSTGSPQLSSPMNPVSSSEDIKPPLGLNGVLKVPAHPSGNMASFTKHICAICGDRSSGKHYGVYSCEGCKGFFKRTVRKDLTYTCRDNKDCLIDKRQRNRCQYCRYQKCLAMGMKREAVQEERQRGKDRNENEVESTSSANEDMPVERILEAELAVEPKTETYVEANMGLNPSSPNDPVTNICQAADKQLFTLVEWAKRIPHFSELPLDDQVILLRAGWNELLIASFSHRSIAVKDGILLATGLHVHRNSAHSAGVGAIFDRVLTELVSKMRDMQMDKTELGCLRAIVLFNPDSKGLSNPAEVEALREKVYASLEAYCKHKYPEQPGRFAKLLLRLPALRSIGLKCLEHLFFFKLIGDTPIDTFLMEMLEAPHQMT

Binder | binding signal
NRC3_wobSeed87_DR3_A21T_o1 (dsDNA) DNA 1: GCCGAACTAGGTCATCCAGGTCAGTGAATACATTGAGCGATTGACAGCGTAGAATGAAGG DNA 2: CCTTCATTCTACGCTGTCAATCGCTCAATGTATTCACTGACCTGGATGACCTAGTTCGGC | 3.37 PBM z-score against 500 random probes
NRC3_wobSeed65_DR2_G11T_o1 (dsDNA) DNA 1: GCATATGTAGTTTATCGGGTCATTCAGTTTGCGCATGCGATTGACAGCGTAGAATGAAGG DNA 2: CCTTCATTCTACGCTGTCAATCGCATGCGCAAACTGAATGACCCGATAAACTACATATGC | 3.34 PBM z-score against 500 random probes
NRC3_wobSeed40_DR1_A24G_o1 (dsDNA) DNA 1: GCTAGCCTAGGTCATGGGCCAGTGTACCACGCGAACGCGATTGACAGCGTAGAATGAAGG DNA 2: CCTTCATTCTACGCTGTCAATCGCGTTCGCGTGGTACACTGGCCCATGACCTAGGCTAGC | 3.31 PBM z-score against 500 random probes
NRC3_wobSeed88_DR3_G24A_o1 (dsDNA) DNA 1: GCTAGCCTAGGTCATGCGGGCCAATATAGTGTCGGCGCGATTGACAGCGTAGAATGAAGG DNA 2: CCTTCATTCTACGCTGTCAATCGCGCCGACACTATATTGGCCCGCATGACCTAGGCTAGC | 3.29 PBM z-score against 500 random probes
NRC3_wobSeed128_DR5_G27T_o1 (dsDNA) DNA 1: GCTCTTGTAGATCAACAGGAGGTTAATAAAGATCGAGCGATTGACAGCGTAGAATGAAGG DNA 2: CCTTCATTCTACGCTGTCAATCGCTCGATCTTTATTAACCTCCTGTTGATCTACAAGAGC | 3.26 PBM z-score against 500 random probes
NRC3_wobSeed74_DR3_C26A_o1 (dsDNA) DNA 1: GCTCTAGTTGGTCACGGAGGTCACAAACGACGGGTAGCGATTGACAGCGTAGAATGAAGG DNA 2: CCTTCATTCTACGCTGTCAATCGCTACCCGTCGTTTGTGACCTCCGTGACCAACTAGAGC | 3.23 PBM z-score against 500 random probes
NRC3_wobSeed64_DR2_A4T_o1 (dsDNA) DNA 1: GCTTGCCTAGGTCATTGGGCCAGTATAGTACGCATCGCGATTGACAGCGTAGAATGAAGG DNA 2: CCTTCATTCTACGCTGTCAATCGCGATGCGTACTATACTGGCCCAATGACCTAGGCAAGC | 3.21 PBM z-score against 500 random probes
NRC3_wobSeed40_DR1_A4C_o1 (dsDNA) DNA 1: GCTCGCCTAGGTCATGGGCCAGTATACCACGCGAACGCGATTGACAGCGTAGAATGAAGG DNA 2: CCTTCATTCTACGCTGTCAATCGCGTTCGCGTGGTATACTGGCCCATGACCTAGGCGAGC | 3.18 PBM z-score against 500 random probes
NRC3_wobSeed140_DR5_T15A_o1 (dsDNA) DNA 1: GCAGAATGAGGTTAAACGTAGATCAGGGAAGAAAGTGCGATTGACAGCGTAGAATGAAGG DNA 2: CCTTCATTCTACGCTGTCAATCGCACTTTCTTCCCTGATCTACGTTTAACCTCATTCTGC | 3.17 PBM z-score against 500 random probes
NRC3_wobSeed104_DR4_A14G_o1 (dsDNA) DNA 1: GCTCTTGTAGATCGATAGAGGTTAAGAAAGTGCGCTGCGATTGACAGCGTAGAATGAAGG DNA 2: CCTTCATTCTACGCTGTCAATCGCAGCGCACTTTCTTAACCTCTATCGATCTACAAGAGC | 3.15 PBM z-score against 500 random probes
NRC3_wobSeed65_DR2_T24A_o1 (dsDNA) DNA 1: GCATATGTAGGTTATCGGGTCATACAGTTTGCGCATGCGATTGACAGCGTAGAATGAAGG DNA 2: CCTTCATTCTACGCTGTCAATCGCATGCGCAAACTGTATGACCCGATAACCTACATATGC | 3.1 PBM z-score against 500 random probes
NRC3_wobSeed110_DR4_A18T_o1 (dsDNA) DNA 1: GCTCTGCTAGGTCAACGTTGGTCAGCTAATCTGCTAGCGATTGACAGCGTAGAATGAAGG DNA 2: CCTTCATTCTACGCTGTCAATCGCTAGCAGATTAGCTGACCAACGTTGACCTAGCAGAGC | 3.08 PBM z-score against 500 random probes
NRC3_wobSeed138_DR5_C7T_o1 (dsDNA) DNA 1: GCGATATAGGGTCAGCTAGAGGCCAGAGTATGGAAAGCGATTGACAGCGTAGAATGAAGG DNA 2: CCTTCATTCTACGCTGTCAATCGCTTTCCATACTCTGGCCTCTAGCTGACCCTATATCGC | 3.06 PBM z-score against 500 random probes
NRC3_wobSeed73_DR3_A18T_o1 (dsDNA) DNA 1: GCCAAACTAGGTCACAGTGGTCAAAGTCCGTGCGTAGCGATTGACAGCGTAGAATGAAGG DNA 2: CCTTCATTCTACGCTGTCAATCGCTACGCACGGACTTTGACCACTGTGACCTAGTTTGGC | 3.02 PBM z-score against 500 random probes
NRC3_wobSeed102_DR4_G19A_o1 (dsDNA) DNA 1: GCCCTAGCAGGCCAATCTAGGTCACTCAAGGCTTGAGCGATTGACAGCGTAGAATGAAGG DNA 2: CCTTCATTCTACGCTGTCAATCGCTCAAGCCTTGAGTGACCTAGATTGGCCTGCTAGGGC | 3 PBM z-score against 500 random probes
NRC3_wobSeed77_DR3_A14T_o1 (dsDNA) DNA 1: GCACTTACGGGTCTACGAGGTTATAGCACGCGTATAGCGATTGACAGCGTAGAATGAAGG DNA 2: CCTTCATTCTACGCTGTCAATCGCTATACGCGTGCTATAACCTCGTAGACCCGTAAGTGC | 0.49 PBM z-score against 500 random probes
NRC3_wobSeed104_DR4_G20A_o1 (dsDNA) DNA 1: GCTCTTGTAGATCAATAGAAGTTAAGAAAGTGCGCTGCGATTGACAGCGTAGAATGAAGG DNA 2: CCTTCATTCTACGCTGTCAATCGCAGCGCACTTTCTTAACTTCTATTGATCTACAAGAGC | 0.44 PBM z-score against 500 random probes

Binder | binding signal
NRC3_wobSeed74_DR3_T21A_o1 (dsDNA) DNA 1: GCTCTAGTTGGTCACGGAGGACACACACGACGGGTAGCGATTGACAGCGTAGAATGAAGG DNA 2: CCTTCATTCTACGCTGTCAATCGCTACCCGTCGTGTGTGTCCTCCGTGACCAACTAGAGC | 0.43 PBM z-score against 500 random probes
NRC3_wobSeed29_DR1_A14C_o1 (dsDNA) DNA 1: GCGCTTACGGGTCCAAGGTTATAGCATGAATAGAATGCGATTGACAGCGTAGAATGAAGG DNA 2: CCTTCATTCTACGCTGTCAATCGCATTCTATTCATGCTATAACCTTGGACCCGTAAGCGC | 0.43 PBM z-score against 500 random probes
NRC3_wobSeed74_DR3_A23C_o1 (dsDNA) DNA 1: GCTCTAGTTGGTCACGGAGGTCCCACACGACGGGTAGCGATTGACAGCGTAGAATGAAGG DNA 2: CCTTCATTCTACGCTGTCAATCGCTACCCGTCGTGTGGGACCTCCGTGACCAACTAGAGC | 0.41 PBM z-score against 500 random probes
NRC3_wobSeed113_DR4_A24C_o1 (dsDNA) DNA 1: GCATATGTAGGTTAGCTGGGGTCCTTCAGACTAGGCGCGATTGACAGCGTAGAATGAAGG DNA 2: CCTTCATTCTACGCTGTCAATCGCGCCTAGTCTGAAGGACCCCAGCTAACCTACATATGC | 0.37 PBM z-score against 500 random probes
NRC3_wobSeed34_DR1_G14T_o1 (dsDNA) DNA 1: GCATCGAAAGGTCTAAGGTGAGTATACCCACCCGAAGCGATTGACAGCGTAGAATGAAGG DNA 2: CCTTCATTCTACGCTGTCAATCGCTTCGGGTGGGTATACTCACCTTAGACCTTTCGATGC | 0.34 PBM z-score against 500 random probes
NRC3_wobSeed77_DR3_G11C_o1 (dsDNA) DNA 1: GCACTTACGGCTCAACGAGGTTATAGCACGCGTATAGCGATTGACAGCGTAGAATGAAGG DNA 2: CCTTCATTCTACGCTGTCAATCGCTATACGCGTGCTATAACCTCGTTGAGCCGTAAGTGC | 0.33 PBM z-score against 500 random probes
NRC3_wobSeed117_DR4_G10C_o1 (dsDNA) DNA 1: GCCGTCAAACTTCAACTAAGGTAACGTAAAGCACGCGCGATTGACAGCGTAGAATGAAGG DNA 2: CCTTCATTCTACGCTGTCAATCGCGCGTGCTTTACGTTACCTTAGTTGAAGTTTGACGGC | 0.31 PBM z-score against 500 random probes
NRC3_wobSeed34_DR1_G14C_o1 (dsDNA) DNA 1: GCATCGAAAGGTCCAAGGTGAGTATACCCACCCGAAGCGATTGACAGCGTAGAATGAAGG DNA 2: CCTTCATTCTACGCTGTCAATCGCTTCGGGTGGGTATACTCACCTTGGACCTTTCGATGC | 0.27 PBM z-score against 500 random probes
NRC3_wobSeed66_DR2_C13G_o1 (dsDNA) DNA 1: GCAATACAGGGTGACTAGGCCAGAGTAGGTACGAATGCGATTGACAGCGTAGAATGAAGG DNA 2: CCTTCATTCTACGCTGTCAATCGCATTCGTACCTACTCTGGCCTAGTCACCCTGTATTGC | 0.22 PBM z-score against 500 random probes
NRC3_wobSeed136_DR5_A14G_o1 (dsDNA) DNA 1: GCTAGCCTAGGTCGTTCAGGGGCCAGTATAGAAAGCGCGATTGACAGCGTAGAATGAAGG DNA 2: CCTTCATTCTACGCTGTCAATCGCGCTTTCTATACTGGCCCCTGAACGACCTAGGCTAGC | 0.19 PBM z-score against 500 random probes
NRC3_wobSeed28_DR1_C20G_o1 (dsDNA) DNA 1: GCCCTACTGGGCCAAAGGTGATTGATTCCAATGCTCGCGATTGACAGCGTAGAATGAAGG DNA 2: CCTTCATTCTACGCTGTCAATCGCGAGCATTGGAATCAATCACCTTTGGCCCAGTAGGGC | 0.13 PBM z-score against 500 random probes
NRC3_wobSeed40_DR1_C13T_o1 (dsDNA) DNA 1: GCTAGCCTAGGTTATGGGCCAGTATACCACGCGAACGCGATTGACAGCGTAGAATGAAGG DNA 2: CCTTCATTCTACGCTGTCAATCGCGTTCGCGTGGTATACTGGCCCATAACCTAGGCTAGC | 0.05 PBM z-score against 500 random probes
NRC3_wobSeed100_DR4_T22C_o1 (dsDNA) DNA 1: GCCCTACTGGGCCACGAAAGGCCATTGATTCAGTGAGCGATTGACAGCGTAGAATGAAGG DNA 2: CCTTCATTCTACGCTGTCAATCGCTCACTGAATCAATGGCCTTTCGTGGCCCAGTAGGGC | -0.05 PBM z-score against 500 random probes
NRC3_wobSeed141_DR5_C13G_o1 (dsDNA) DNA 1: GCAGTCAAAGTTGAGGACGAGGTAACGTAAAGCACGGCGATTGACAGCGTAGAATGAAGG DNA 2: CCTTCATTCTACGCTGTCAATCGCCGTGCTTTACGTTACCTCGTCCTCAACTTTGACTGC | -0.07 PBM z-score against 500 random probes
NRC3_wobSeed116_DR4_G11A_o1 (dsDNA) DNA 1: GCAGAATGAGATTACCAAAGATCAGGGAAACGCTTGGCGATTGACAGCGTAGAATGAAGG DNA 2: CCTTCATTCTACGCTGTCAATCGCCAAGCGTTTCCCTGATCTTTGGTAATCTCATTCTGC | -0.15 PBM z-score against 500 random probes
NRC3_random_hg19_497_o1 (dsDNA) DNA 1: GCGGGTTTAGAGATGATTTGCTGTGACAGTGTTGAGGCGATTGACAGCGTAGAATGAAGG DNA 2: CCTTCATTCTACGCTGTCAATCGCCTCAACACTGTCACAGCAAATCATCTCTAAACCCGC | 0.38 PBM z-score against 500 random probes
